Measured values from article PMC4318453.

B1: BKPyV agnoprotein, purified full-length (natural protein)
chain: MVLRQLSRQASVKVGKTWTGTKKRAQRIFIFILELLLEFCRGEDSVDGKNKSTTALPAVKDSVKDS

Assays:
heat shock protein 40 = heat shock protein 40 (UniProt P25685); assay: FRET or BRET; positive control of the FRET experiment, results not shown
[1] = target: Proliferating cell nuclear antigen, purified recombinant (UniProt P12004)

Chain of UniProt P25685 (P25685 whole entry): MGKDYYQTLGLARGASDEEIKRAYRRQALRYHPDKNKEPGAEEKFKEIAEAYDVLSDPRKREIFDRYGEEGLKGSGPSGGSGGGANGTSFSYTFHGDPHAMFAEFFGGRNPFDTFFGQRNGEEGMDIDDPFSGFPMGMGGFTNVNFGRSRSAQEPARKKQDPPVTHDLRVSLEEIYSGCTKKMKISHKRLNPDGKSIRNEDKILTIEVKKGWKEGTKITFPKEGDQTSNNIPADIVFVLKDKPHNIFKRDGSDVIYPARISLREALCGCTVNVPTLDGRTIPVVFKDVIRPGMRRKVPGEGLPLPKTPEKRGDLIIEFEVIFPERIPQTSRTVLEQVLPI

Molecule | FRET efficiency (heat shock protein 40) | PCNA:pol δ-mediated in vitro DNA synthesis (polydA/oligodT, [3H]dTTP incorporation) with increasing amounts of agnoprotein [1]
mitogen-activated protein kinase MK5 (from UniProt Q8IW41 1-473) (enzyme) | 15% | 
B1 |  | 50%
